These are literature values, as cited in article PMC10580911.

What is called Kd is the concentration at which binding is half-saturated.

The target in this data set is Tk-subtilisin (Thermococcus kodakarensis) (UniProt P58502).

In the case of “Tk-subtilisin propeptide propeptide (from UniProt P58502)”, the Kd was 1.4 nM.
